Reference: the RNAGym collection of RNA variant scans (doi:10.7554/elife.80360)

B1: Hairpin Ribozyme (parent)
chain: GUCCUCUUUCACGUGCGCGUGAAAGAGAGAAGUGAACCAGAGAAACACACGUUGUGGUAUAUUACCUGGUA
B2: Hammerhead Ribozyme (parent)
chain: ACCGGAUGUGCUUUCCGGUCUGAUGAGUCCGUGAGGACGAAACAG

Variants of: B1
Experiment: self-cleavage, relative activity (ratio to wild type); higher = more cleavage; co-transcriptional

First: U14C G69U
Second: U9G G15U
The self-cleavage of the first is lower: 0.3 for the first, 0.894 for the second.

Going from C12U G25U to G25C C46U, the self-cleavage falls from 0.52 to 0.0896.

Going from A30C G68U to U58G A59U, the self-cleavage rises from 0.141 to 0.242.

Going from U20A G42U to U20A G42A, the self-cleavage falls from 0.346 to 0.226.

First: G13U C46U
Second: A49U A71C
The self-cleavage of the first is lower: 0.137 for the first, 0.607 for the second.

Compared with C3U U58G, G15A G19A is higher in self-cleavage: 0.404 for the first, 0.898 for the second.

Going from U8G G21U to C6U A61G, the self-cleavage falls from 0.523 to 0.155.

Compared with C4G U52A, G32A C48U is higher in self-cleavage: 0.143 for the first, 0.154 for the second.

First: U7G C10U
Second: A41C G54U
The self-cleavage of the first is lower: 0.64 for the first, 0.724 for the second.

Going from A36C G68A to A30U U55C, the self-cleavage falls from 0.193 to 0.179.

Compared with A11U A47C, U7A C50A is lower in self-cleavage: 0.232 for the first, 0.175 for the second.

Compared with U14G G17C, U2G C16U is higher in self-cleavage: 0.415 for the first, 0.478 for the second.

Going from A11C U62G to U2G A71C, the self-cleavage rises from 0.199 to 0.77.

Compared with U58C G69U, G19U G69C is lower in self-cleavage: 0.302 for the first, 0.269 for the second.

Going from U5C A30G to A36G C38G, the self-cleavage rises from 0.111 to 0.127.

Going from G40C U60C to U2G A30C, the self-cleavage falls from 0.135 to 0.108.

Compared with U33G C46G, A30G A31C is lower in self-cleavage: 0.174 for the first, 0.111 for the second.

Going from A41U A43G to U55G U62C, the self-cleavage rises from 0.0919 to 0.161.

Going from U33A U67A to G21U A35G, the self-cleavage rises from 0.0848 to 0.757.

Going from C12A A31G to A39U C48G, the self-cleavage falls from 0.468 to 0.124.

Going from G42C G56U to U9G U58G, the self-cleavage rises from 0.117 to 0.579.

Compared with G21C, U7C U14C is higher in self-cleavage: 0.812 for the first, 0.925 for the second.

First: C4U A47C
Second: C18A C46G
The self-cleavage of the first is lower: 0.0918 for the first, 0.12 for the second.

Going from G13U G29A to U5C A59G, the self-cleavage rises from 0.157 to 0.222.

Going from U52C U60C to C18U U62A, the self-cleavage falls from 1.16 to 0.225.

Compared with A43C C65G, A44U G68A is higher in self-cleavage: 0.0609 for the first, 0.116 for the second.

First: C6U C10U
Second: G25A A30G
The self-cleavage of the first is higher: 0.582 for the first, 0.188 for the second.

Going from A24G A31U to U2C C6G, the self-cleavage falls from 0.111 to 0.0983.

First: A26U C50U
Second: A30C U33A
The self-cleavage of the first is higher: 0.261 for the first, 0.0224 for the second.

Compared with C4G U62G, C6U G29U is higher in self-cleavage: 0.114 for the first, 0.12 for the second.

First: A28G A47C
Second: C3G G54U
The self-cleavage of the first is higher: 0.42 for the first, 0.175 for the second.

First: C48A G57U
Second: A28U G29C
The self-cleavage of the first is higher: 0.115 for the first, 0.0715 for the second.

First: A30U C46G
Second: A22U G29C
The self-cleavage of the first is higher: 0.252 for the first, 0.214 for the second.

First: G21A A23U
Second: G13U C65U
The self-cleavage of the first is higher: 0.825 for the first, 0.301 for the second.

First: G1U C3A
Second: C38A G68A
The self-cleavage of the first is higher: 0.161 for the first, 0.148 for the second.

First: A47G U53A
Second: U2G A43G
The self-cleavage of the first is lower: 0.176 for the first, 0.21 for the second.

Compared with C37U A59G, A11C C48U is higher in self-cleavage: 0.152 for the first, 0.266 for the second.

Compared with U20C A26U, C37A A43C is lower in self-cleavage: 0.692 for the first, 0.0917 for the second.

Compared with C3U C18G, G19C C37G is lower in self-cleavage: 0.531 for the first, 0.356 for the second.

First: A11C A41C
Second: A35G G40C
The self-cleavage of the first is higher: 1.25 for the first, 0.175 for the second.

Going from A11C A45C to C16G A41U, the self-cleavage rises from 0.0923 to 1.35.

Going from C16A G57C to G17C G19U, the self-cleavage rises from 0.127 to 0.502.

Compared with C6U C18A, C16A U67A is lower in self-cleavage: 0.885 for the first, 0.246 for the second.

First: C10U G29U
Second: C46A C66A
The self-cleavage of the first is higher: 0.134 for the first, 0.0901 for the second.

Going from G1U A61U to C38U A47U, the self-cleavage rises from 0.116 to 0.151.

Compared with G15U A35G, G13A A47G is lower in self-cleavage: 0.933 for the first, 0.185 for the second.

First: A35U U53C
Second: G42A G57U
The self-cleavage of the first is higher: 1.04 for the first, 0.0918 for the second.

First: A28G C38G
Second: C18U A35U
The self-cleavage of the first is lower: 0.169 for the first, 0.802 for the second.

Going from U14C U55C to U58G U63G, the self-cleavage falls from 0.483 to 0.104.

First: C38G G40C
Second: U63C U67A
The self-cleavage of the first is lower: 0.0961 for the first, 0.21 for the second.

Compared with C18U G51U, U55A U70G is lower in self-cleavage: 0.993 for the first, 0.342 for the second.

Compared with A22U U33G, A24U A49U is higher in self-cleavage: 0.174 for the first, 0.216 for the second.

Compared with U8A C16A, U7G U52A is lower in self-cleavage: 0.876 for the first, 0.734 for the second.

Going from G54A C66A to A22G A71G, the self-cleavage rises from 0.229 to 0.907.

Compared with G1A C18U, C16G A30G is lower in self-cleavage: 0.256 for the first, 0.0703 for the second.

Going from C50U G69U to C10A A64U, the self-cleavage falls from 0.128 to 0.121.

First: U9A U70G
Second: C18A A22U
The self-cleavage of the first is lower: 0.532 for the first, 0.794 for the second.

Compared with G34A G68U, A36U G54C is lower in self-cleavage: 0.325 for the first, 0.278 for the second.

First: A49U U67G
Second: U9A U52G
The self-cleavage of the first is lower: 0.109 for the first, 0.472 for the second.

Compared with G15C A35C, A11G C12A is higher in self-cleavage: 0.628 for the first, 0.735 for the second.

Going from G1U U8A to C4A A30U, the self-cleavage rises from 0.144 to 0.228.

Going from A26C G29A to A22G U52C, the self-cleavage rises from 0.149 to 0.791.

First: C12U U67G
Second: C3U A41U
The self-cleavage of the first is lower: 0.286 for the first, 0.917 for the second.

First: C50U G56A
Second: G29A U70A
The self-cleavage of the first is higher: 0.203 for the first, 0.0755 for the second.

For G19A A49C, the self-cleavage was 0.131.

Variants of: B2
Experiment: as above

Compared with A42U G45A, A42U G45U is higher in self-cleavage: 0.374 for the first, 0.427 for the second.

First: A42U G45C
Second: G39C G45U
The self-cleavage of the first is higher: 0.404 for the first, 0.328 for the second.

Compared with G39C G45C, G39C G45A is lower in self-cleavage: 0.368 for the first, 0.359 for the second.

First: A41C C43U
Second: A41C C43A
The self-cleavage of the first is lower: 0.316 for the first, 0.361 for the second.

Compared with A41C C43G, A42U A44C is higher in self-cleavage: 0.408 for the first, 0.96 for the second.

Going from A42U A44G to A42U A44U, the self-cleavage falls from 1.37 to 0.276.

Compared with G39U A41G, G39U A41C is higher in self-cleavage: 0.327 for the first, 0.368 for the second.

Compared with G39U A41U, G39A C43A is lower in self-cleavage: 0.326 for the first, 0.284 for the second.

Compared with G39A C43U, G39A C43G is lower in self-cleavage: 0.341 for the first, 0.264 for the second.

First: A41G
Second: A41U
The self-cleavage of the first is lower: 0.345 for the first, 0.393 for the second.

First: A41C
Second: A40U
The self-cleavage of the first is higher: 0.376 for the first, 0.366 for the second.

Compared with A40G, A40C is higher in self-cleavage: 0.4 for the first, 0.73 for the second.

First: G39A A41G
Second: G39A A41U
The self-cleavage of the first is higher: 0.383 for the first, 0.293 for the second.

Going from A44C G45A to A44C G45C, the self-cleavage rises from 0.932 to 1.14.

Compared with A44C G45U, G39C A42G is lower in self-cleavage: 0.721 for the first, 0.279 for the second.

Compared with G39C A42C, G39C A42U is higher in self-cleavage: 0.355 for the first, 0.39 for the second.

Compared with A42C C43G, A42C C43A is higher in self-cleavage: 0.271 for the first, 0.368 for the second.

First: A42C C43U
Second: G39A A44U
The self-cleavage of the first is higher: 0.38 for the first, 0.342 for the second.

Compared with G39A A44G, G39A A44C is lower in self-cleavage: 0.718 for the first, 0.39 for the second.
